Experimental findings from patent publication US20160235871A1, “Spect Radionuclide-labeled Trimeric Cycle RGD Peptide, Preparation Method Thereof and Imaging Method Thereof” (Bailing Cloud Biomedical Technologies Innovation, priority 2015, published 2016) are described below.

Like-named read-outs stand apart in the source and are kept apart here.

Data set [1] can be described thus: Biodistribution in U87MG glioma nude mice. Format: in vivo. To be noted: female, athymic nu/nu nude, mouse, in vivo, iv, 3 uCi, total radioactivity. As for the experimental part: (§1) U87MG cells are purchased from US ATCC (Manassas, Va.). Cell culture conditions: […] […] 7 random U87MG glioma nude mice (20-25 g) are selected. […] After 60 minutes, a great amount of sodium pentobarbital is injected for executing the mice. Blood samples are collected from the mouse hearts. Tumor, normal organs (brain, eyes, heart, spleen, lung, liver, kidney, muscle and intestine) and tumor tissues are collected and washed by saline. Then they are dried by absorbent tissue, weighed by Perkin Elmer Wizard 1480 γ counter (Shelton, Conn.). The organ intake is measured by the percentage of the injection dose per gram of the tissue (% ID/g).

The subject of data set [2] is U87MG glioma. The data set is described as follows: Biodistribution in U87MG glioma nude mice. The format is in vivo. As for the experimental part:
as §1

For data set [3] the following is noted: normal mice, research period over 2 hours. As for the experimental part: X. Normal mice (n=2) are selected for the metabolism research of the stability of ^99mmTc-4P-RGD3 in vivo, Each animal is injected with about 10 MBq of ^99mTc-4P-RGD3. The bladders are squeezed manually after 30 minutes and 120 minutes, respectively. The urine samples are collected and are mixed with 50% aqueous acetonitrile with the same volume. The mixture is centrifilged under 8,000 rpm. The supernatant is collected and is filtered by a 0.20 μm Millex-LG filter. The filtrate is analyzed by the HPLC. The fecal samples 120 minutes after the injection is collected, and is treated for homogenization by 20% of aqueous acetonitrile. The obtained mixture is rotated for about 5 minutes and then is centrifuged under 8,000 rpm. The supernatant is collected and is filtered by a 0.20 μm. Millex-LG filter. The filtrate is analyzed by the HPLC.

Data set [4] concerns U87MG glioma. Conditions: SPECT/CT.
Experimental: The preparation of ^99mTc-4P-RGD3 for the research of biodistribution includes incorporating ^99mTc-4P-RGD3 solution into physiological saline until the activity concentration is 10-30 mCi/mL. The preparation of ^99mTc-4P-RGD3 for tumor imaging includes incorporating ^99mTc-4P-RGD3 solution into physiological saline until the activity concentration is about 10 mCi/mL. During the experiments, each of the animal is injected with about 0.1 mL of the solution.
Biodistribution and tumor imaging are performed under the guidance of US National Institutes of Health animal experiments (1985, NIH 86-23, Laboratory Animal Care). U87MG cells are purchased from US ATCC (Manassas, Va.). Cell culture conditions: DMEM medium (non-essential amino acids sodium pyruvate) containing 10% of fetal bovine serum and 1% of penicillin and streptomycin. The cells are cultured under 37° C. with 5% of CO2. When the cells are grown to 90% confluence, they grow exponentially. The cells can be grown to a single layer, multiple layers or split layers. Female athymic nu/nu nude mice aged 4-5 weeks are used for the experiments, 5×10^6 of tumor cells are incorporated into 0.1 mL of physiological saline and are planted to shoulder subcutaneous of the mice under sterile conditions. About 4 weeks after planting, the tumor cells grow to 0.1-0.5 g for the use of biodistribution and imaging.

For the molecule `N=C(N)NCCC[C@@H]1NC(=O)[C@H](CCCCNC(=O)[C@H]2O[C@@H](CNC(=O)COCCOCCn3cc(CNC(=O)CC[C@H](NC(=O)c4ccc(NN)nc4)C(=O)NCc4cn(CCOCCOCC(=O)NC[C@@H]5O[C@H](C(=O)NCCCC[C@@H]6NC(=O)[C@@H](Cc7ccccc7)NC(=O)[C@H](CC(=O)O)NC(=O)CNC(=O)[C@H](CCCNC(=N)N)NC6=O)[C@H](O)[C@H](O)[C@H]5O)nn4)nn3)[C@H](O)[C@@H](O)[C@H]2O)NC(=O)[C@@H](Cc2ccccc2)NC(=O)[C@H](CC(=O)O)NC(=O)CNC1=O` [^99mTc-Galacto-RGD2, metal not drawn], the tissue uptake at 1 h was 0.56 ± 0.25 %ID/g in data set [1] (Organ intake, Blood); 0.35 ± 0.28 %ID/g in data set [1] (Organ intake, Brain); 0.81 ± 0.39 %ID/g in data set [1] (Organ intake, Eye); 1.27 ± 0.61 %ID/g in data set [1] (Organ intake, Heart); 11.7 ± 4.06 %ID/g in data set [1] (Organ intake, Kidney); 3.07 ± 2.14 %ID/g in data set [1] (Organ intake, Liver). Further, the tissue uptake at 1 h was determined as 2.93 ± 0.94 %ID/g in data set [1] (Organ intake, Lung); 0.88 ± 0.34 %ID/g in data set [1] (Organ intake, Muscle); 5.45 ± 1.47 %ID/g in data set [1] (Organ intake, Small Intestine); 1.99 ± 0.71 %ID/g in data set [1] (Organ intake, Spleen); 6.86 ± 1.33 %ID/g in data set [1] (Tumor intake). This molecule showed a Tumor intake with U87MG glioma [2] (mouse, in vivo) of 6.86±1.33 % ID/g.

For the molecule `N=C(N)NCCC[C@@H]1NC(=O)[C@H](CCCCNC(=O)CCOCCOCCOCCOCCNC(=O)CC[C@H](NC(=O)CCOCCOCCOCCOCCNC(=O)c2ccc(NN)nc2)C(=O)NCCOCCOCCOCCOCCC(=O)NCCCC[C@@H]2NC(=O)[C@@H](Cc3ccccc3)NC(=O)[C@H](CC(=O)O)NC(=O)CNC(=O)[C@H](CCCNC(=N)N)NC2=O)NC(=O)[C@@H](Cc2ccccc2)NC(=O)[C@H](CC(=O)O)NC(=O)CNC1=O` [^99mTc-3P-RGD2, metal not drawn], the tissue uptake at 1 h came to 0.47 ± 0.06 %ID/g in data set [1] (Organ intake, Blood); 0.17 ± 0.03 %ID/g in data set [1] (Organ intake, Brain); 1.4 ± 0.13 %ID/g in data set [1] (Organ intake, Eye); 1.67 ± 0.15 %ID/g in data set [1] (Organ intake, Heart); 12.3 ± 1.09 %ID/g in data set [1] (Organ intake, Kidney); 2.92 ± 0.77 %ID/g in data set [1] (Organ intake, Liver). In addition, the tissue uptake at 1 h in data set [1] (Organ intake, Lung) turned out to be 4.25 ± 0.63 %ID/g; in data set [1] (Organ intake, Muscle), 1.12 ± 0.15 %ID/g; in data set [1] (Organ intake, Spleen), 3.11 ± 0.18 %ID/g; in data set [1] (Tumor intake), 7.24 ± 0.95 %ID/g. The Tumor intake in the data set on U87MG glioma [2] (mouse, in vivo) turned out to be 7.24±0.95 % ID/g.

In the case of `N=C(N)NCCC[C@@H]1NC(=O)[C@H](CCCCNC(=O)CCOCCOCCOCCOCCNC(=O)CCC(CCC(=O)NCCOCCOCCOCCOCCC(=O)NCCCC[C@@H]2NC(=O)[C@@H](Cc3ccccc3)NC(=O)[C@H](CC(=O)O)NC(=O)CNC(=O)[C@H](CCCNC(=N)N)NC2=O)(CCC(=O)NCCOCCOCCOCCOCCC(=O)NCCCC[C@@H]2NC(=O)[C@@H](Cc3ccccc3)NC(=O)[C@H](CC(=O)O)NC(=O)CNC(=O)[C@H](CCCNC(=N)N)NC2=O)NC(=O)CCOCCOCCOCCOCCNC(=O)c2ccc(NN)nc2)NC(=O)[C@@H](Cc2ccccc2)NC(=O)[C@H](CC(=O)O)NC(=O)CNC1=O` (stereo partly drawn) [^99mTc-4P-RGD3, metal not drawn], in data set [3], the “Metabolites detected in the urine samples and the fecal samples (radio-HPLC)” value is “no metabolites”. The tissue uptake at 1 h is 0.53 ± 0.14 %ID/g in data set [1] (U87MG glioma nude mice, 60 minutes after tail vein injection, read-out: Organ intake, Blood); 0.14 ± 0.01 %ID/g in data set [1] (U87MG glioma nude mice, 60 minutes after tail vein injection, read-out: Organ intake, Brain); 0.46 ± 0.23 %ID/g in data set [1] (U87MG glioma nude mice, 60 minutes after tail vein injection, read-out: Organ intake, Eye); 0.56 ± 0.19 %ID/g in data set [1] (U87MG glioma nude mice, 60 minutes after tail vein injection, read-out: Organ intake, Heart); 9.1 ± 2.31 %ID/g in data set [1] (U87MG glioma nude mice, 60 minutes after tail vein injection, read-out: Organ intake, Kidney); 1.92 ± 0.62 %ID/g in data set [1] (U87MG glioma nude mice, 60 minutes after tail vein injection, read-out: Organ intake, Liver). Further, the tissue uptake at 1 h in data set [1] (U87MG glioma nude mice, 60 minutes after tail vein injection, read-out: Organ intake, Lung) turned out to be 1.14 ± 0.41 %ID/g; in data set [1] (U87MG glioma nude mice, 60 minutes after tail vein injection, read-out: Organ intake, Muscle), 0.35 ± 0.17 %ID/g; in data set [1] (U87MG glioma nude mice, 60 minutes after tail vein injection, read-out: Organ intake, Small Intestine) it was 1.65 ± 0.37 %ID/g; in data set [1] (U87MG glioma nude mice, 60 minutes after tail vein injection, read-out: Organ intake, Spleen) it was 1.33 ± 0.52 %ID/g; in data set [1] (U87MG glioma nude mice, 60 minutes after tail vein injection, read-out: Tumor intake) it was 7.34 ± 1.66 %ID/g. For the same molecule, in the data set on U87MG glioma [2] (60 minutes after injection, compared with ^99mTc-3P-RGD2 and ^99mTc-Galacto-RGD2), the “Intake background in organs of the whole body (intestine, liver, lung, muscle, spleen, kidney)” value was “significantly decreased”. In the data set with U87MG glioma [2] (U87MG glioma nude mice, 60 minutes after tail vein injection), the Tumor intake is reported as 7.34±1.66 % ID/g. Besides, in the data set on U87MG glioma [4] (compared with ^99mTc-3P-RGD2 and ^99mTc-Galacto-RGD2), the “Radioactive accumulation in animal abdomen (especially in intestines)” value was “the lowest”. The “Tumor intake based on the SPECT quantization” value in the data set on U87MG glioma [4] (glioma nude mice, about 37 MBq injected) is reported as “about 7.34 ID/g”.
